Test results reported in patent US20250320281A1.

Assays:
Assay in all cases: cell-based or functional assay
[1] = biological target: HIV-1 envelope glycoprotein (Env) of isolate MGRM-A-007, clade A (HIV-1)
[2] = biological target: HIV-1 envelope glycoprotein (Env) of isolate 93RW029, clade A (HIV-1)
[3] = biological target: HIV-1 Env of pseudovirus MGRM-G-025 (HIV-1, clade G isolate MGRM-G-025)
[4] = biological target: HIV-1 envelope glycoprotein (Env) of isolate MGRM-A-002, clade A (HIV-1)
[5] = biological target: aMLV envelope protein on pseudovirus
[6] = biological target: HIV-1 Env of pseudovirus MGRM-G-009 (clade G) (HIV-1)
[7] = biological target: HIV-1 Env of pseudovirus MGRM-Chronic-B-010 (HIV-1)
[8] = biological target: HIV-1 Env of pseudovirus MGRM-F1-021 (HIV-1)
[9] = biological target: HIV-1 Env of pseudovirus MGRM-AG-005 (clade CRF_AG) (HIV-1)
[10] = biological target: aMLV envelope protein on pseudovirus (negative control)
[11] = biological target: HIV-1 Env of isolate 92BR020, clade B, on pseudovirus (HIV-1)
[12] = biological target: HIV-1 Env of pseudovirus MGRM-AG-001 (clade CRF_AG) (HIV-1)
[13] = biological target: HIV-1 Env of isolate APV_6, clade B, on pseudovirus (HIV-1)
[14] = biological target: HIV-1 Env of isolate MGRM-Chronic-B-001, clade B, on pseudovirus (HIV-1)
[15] = biological target: HIV-1 Env of pseudovirus MGRM-F1-018 (HIV-1)
[16] = biological target: HIV-1 Env of pseudovirus MGRM-F1-004 (HIV-1)
[17] = biological target: HIV-1 Env of isolate MGRM-D-028 (clade D pseudovirus) (HIV-1)
[18] = biological target: HIV-1 Env of pseudovirus MGRM-G-011 (HIV-1, clade G isolate MGRM-G-011)
[19] = biological target: HIV-1 envelope glycoprotein (Env) of isolate MGRM-A-004, clade A (HIV-1)

1443_C16 (PG16) (TCN-116) (antibody), sequence (VH): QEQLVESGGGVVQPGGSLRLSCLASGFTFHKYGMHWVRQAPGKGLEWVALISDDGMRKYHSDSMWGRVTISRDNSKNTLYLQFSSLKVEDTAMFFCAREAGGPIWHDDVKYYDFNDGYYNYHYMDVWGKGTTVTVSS
1443_C16 (PG16) (TCN-116) (antibody), sequence (VL): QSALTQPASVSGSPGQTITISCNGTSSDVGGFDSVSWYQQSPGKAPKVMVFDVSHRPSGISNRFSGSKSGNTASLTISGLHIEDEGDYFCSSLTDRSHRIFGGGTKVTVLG

Row | Substance | IC50 (µg/ml), pseudovirus neutralization [1] | IC50 (µg/ml), pseudovirus neutralization [2] | IC50 (µg/ml), pseudovirus neutralization [3] | IC50 (µg/ml), pseudovirus neutralization [4] | IC50, pseudovirus neutralization [5] | IC50 [6] | IC50 (µg/ml), pseudovirus neutralization [7] | IC50 (µg/ml), pseudovirus neutralization [8] | IC50 [9] | IC90 (pseudovirus neutralization) [10] | IC50 (µg/ml), pseudovirus neutralization [11] | IC50 [12] | IC50 (µg/ml), pseudovirus neutralization [13] | IC50 (µg/ml), pseudovirus neutralization [14] | IC50 (µg/ml), pseudovirus neutralization [15] | IC50 (µg/ml), pseudovirus neutralization [16] | IC50 (µg/ml), pseudovirus neutralization [17] | IC50 (µg/ml), pseudovirus neutralization [18] | IC50 (µg/ml), pseudovirus neutralization [19]
1 | 2G12 (antibody) | > 50 µg/mL | > 50 µg/mL | 31.9 µg/mL | > 50 µg/mL | > 50 µg/mL | > 50 µg/mL | 1.5 µg/mL | 14.1 µg/mL | > 50 µg/mL | > 50 µg/mL | 4.84 µg/mL | 0.69 µg/mL | 1.9 µg/mL | 0.08 µg/mL | > 50 µg/mL | > 50 µg/mL | > 50 µg/mL | > 50 µg/mL | > 50 µg/mL
2 | 1443_C16 (PG16) (TCN-116) (antibody) | 5.91 µg/mL | 3.83 µg/mL | > 50 µg/mL | 0.004 µg/mL | > 50 µg/mL | > 50 µg/mL | 0.01 µg/mL | > 50 µg/mL | > 50 µg/mL | > 50 µg/mL | > 50 µg/mL | 0.03 µg/mL | 0.29 µg/mL | > 50 µg/mL | 0.01 µg/mL | 0.43 µg/mL | > 50 µg/mL | 0.04 µg/mL | 0.04 µg/mL
3 | 2F5 (antibody) | 16.3 µg/mL | > 50 µg/mL | > 50 µg/mL | > 50 µg/mL | > 50 µg/mL | 7.21 µg/mL | 0.96 µg/mL | 1.37 µg/mL | > 50 µg/mL | > 50 µg/mL | > 50 µg/mL | 0.75 µg/mL | 0.25 µg/mL | 0.55 µg/mL | 3.91 µg/mL | 4.31 µg/mL | > 50 µg/mL | 1.16 µg/mL | 7.49 µg/mL
4 | 1495_C14 (PGC14) (antibody) | > 50 µg/mL | 42 µg/mL | > 50 µg/mL | > 50 µg/mL | > 50 µg/mL | > 50 µg/mL | 27 µg/mL | 46 µg/mL | > 50 µg/mL | – | 4 µg/mL | > 50 µg/mL | 23 µg/mL | > 50 µg/mL | > 50 µg/mL | > 50 µg/mL | > 50 µg/mL | > 50 µg/mL | > 50 µg/mL
5 | 4E10 (antibody) | 1.82 µg/mL | 15.5 µg/mL | 1.7 µg/mL | 6.45 µg/mL | > 50 µg/mL | 1.34 µg/mL | 1.69 µg/mL | 1.87 µg/mL | 2.13 µg/mL | > 50 µg/mL | > 50 µg/mL | 1.12 µg/mL | 1.1 µg/mL | 1.46 µg/mL | 3.6 µg/mL | 2.74 µg/mL | 1.28 µg/mL | 1.44 µg/mL | 3.14 µg/mL
6 | b12 (antibody) | > 50 µg/mL | > 50 µg/mL | > 50 µg/mL | > 50 µg/mL | > 50 µg/mL | > 50 µg/mL | > 50 µg/mL | > 50 µg/mL | > 50 µg/mL | > 50 µg/mL | > 50 µg/mL | 11.9 µg/mL | > 50 µg/mL | 0.75 µg/mL | > 50 µg/mL | > 50 µg/mL | 0.78 µg/mL | > 50 µg/mL | > 50 µg/mL
